Experiment [1] concerns the target T1, Recombinant human His6-tagged Hsp70 (human, UniProt P0DMV8 2-641).
T1 construct: mature; also called His6-Hsp70; human Hsp70
Nature of the experiment: titration of peptide C in the GST-CD40 pull-down of His6-Hsp70-ADP, quantified immunoblot. The protocol: For binding assays with recombinant Hsp70 and its domains, 3 μM His6-Hsp70 or its His6-tagged domains were incubated with 2 mM ATP, 2 mM ADP or 2 mM ADP and 28 μM peptide C in 50 μl binding buffer (10 mM MOPS/KOH, pH 7.2, 150 mM KCl and 3 mM MgCl2) for 30 min at 37° C. In competition experiments binding was probed with either a 10-fold excess of Hsp70, the two domains, or DnaK, or with a 5-fold excess of Hip or Bag 1 for 10 min at 0° C. To this end, Hsp70, N70, C70 and DnaK were preincubated with ADP, ATP and peptide C as described above. For comparison of CD40 binding of Hsp70 and its N-terminal domain, Hsp70 was preincubated in the presence or absence (mock treatment) of a 30-fold molar excess of peptide C. 3 μM of GST or GST-CD40 was added to the samples and incubated for 20 min at 16° C. For titration of peptide C, 5- to 50-fold excess of peptide C (15-150 μM) was added to the preincubation of Hsp70. Thereafter the samples were combined with 20 μl of 1% BSA-treated Glutathione Sepharose 4 Fast Flow and incubated in the presence of 2 mM DTT for another 20 min at 16° C. […] 10 μl of the eluates were subjected to SDS-PAGE and analyzed by immunoblotting using a Penta-His-antibody (Quiagen). Blot signals were quantified by Quantity One (Biorad).

The target of experiment [2] is T2, Biotinylated recombinant Hsp70 (human, UniProt P0DMV8 2-641).
T2 construct: mature; also called biotinylated Hsp70; biotin-labeled Hsp70; not shown: His tag
T2 sequence (P0DMV8 2-641): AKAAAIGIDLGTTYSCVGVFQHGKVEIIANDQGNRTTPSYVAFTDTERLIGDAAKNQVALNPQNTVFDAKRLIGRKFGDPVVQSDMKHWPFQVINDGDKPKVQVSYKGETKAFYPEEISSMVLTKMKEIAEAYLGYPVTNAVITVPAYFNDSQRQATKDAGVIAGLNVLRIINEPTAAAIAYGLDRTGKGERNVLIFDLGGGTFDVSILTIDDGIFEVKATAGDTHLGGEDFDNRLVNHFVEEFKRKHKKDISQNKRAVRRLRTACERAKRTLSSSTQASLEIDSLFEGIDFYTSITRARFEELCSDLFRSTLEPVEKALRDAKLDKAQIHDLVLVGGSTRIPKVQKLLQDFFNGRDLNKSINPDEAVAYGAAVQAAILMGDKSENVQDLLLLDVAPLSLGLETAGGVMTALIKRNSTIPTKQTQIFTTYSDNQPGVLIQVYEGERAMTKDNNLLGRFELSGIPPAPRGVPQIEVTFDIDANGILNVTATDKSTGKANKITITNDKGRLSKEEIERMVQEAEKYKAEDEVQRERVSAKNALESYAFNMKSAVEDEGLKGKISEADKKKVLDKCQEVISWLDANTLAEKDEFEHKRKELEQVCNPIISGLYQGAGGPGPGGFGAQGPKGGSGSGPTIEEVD
Nature of the experiment: fluorescence microscopy on LPS-stimulated ANA1 cells. The protocol:
ANA-1 cells were cultured in VLE-RPMI 1640 (Biochrom), supplemented with 10% FCS, 2 mM L-glutamine and antibiotics. For fluorescence microscopy, ANA1 cells were either stimulated with LPS (20 μg/ml, Sigma, Germany), or kept in an LPS-free medium (mock treatment) for 7 h. After stimulation, cells were harvested and incubated with 100 nM biotinylated Hsp70, biotinylated GST, or Hsp70/peptide C-biotin complex for 30 min at 0° C. in VLE-RPMI 1640. After incubation cells were processed for staining with streptavidin-TRITC (Sigma, Germany), fixed with paraformaldehyde and analyzed by fluorescence microscopy (Axiovert 35, Zeiss) as described (Sondermann et al., 2000). […] Twenty-four h post-transfection cells were incubated with 250 nM biotinylated Hsp70, biotinylated GST or Hsp70/peptide C-biotin complex for 30 min at 0° C. in DMEM, fixed, stained with streptavidin-TRITC (Sigma, Germany), and analyzed by fluorescence microscopy as described (Sondermann et al., 2000, idem). […] Stably transfected cell lines were analyzed by immunoblotting for CD40 expression using an anti-CD40 antibody (CSA180, Stressgen). […]

T1 sequence (P0DMV8 2-641): as above

B1: Peptide C (GCEVFGLGWRSYKH) (peptide)
peptide: GCEVFGLGWRSYKH
notes: Synthetic Hsp70 substrate peptide; also called peptide substrate; substrate peptide
Regarding B1, in experiment [1], the “ka (saturable effect of peptide C on binding of Hsp70-ADP to CD40)” value was around 30 µM.

B2: Endogenous CD40 of LPS-stimulated murine ANA1 macrophage cells (receptor, UniProt P27512 20-289, looked up)
chain: LGQCVTCSDKQYLHDGQCCDLCQPGSRLTSHCTALEKTQCHPCDSGEFSAQWNREIRCHQHRHCEPNQGLRVKKEGTAESDTVCTCKEGQHCTSKDCEACAQHTPCIPGFGVMEMATETTDTVCHPCPVGFFSNQSSLFEKCYPWTSCEDKNLEVLQKGTSQTNVICGLKSRMRALLVIPVVMGILITIFGVFLYIKKVVKKPKDNEILPPAARRQDPQEMEDYPGHNTAAPVQETLHGCQPVTQEDGKESRISVQERQVTDSIALRPLV
notes: whole, on cells
Turning to B2, the binding result in experiment [2] is “binds”.
